Assay [1] addresses T1, SRS (Seryl-tRNA synthetase), purified recombinant antigen (UniProt P49591 1-514, limits assumed).
T1 construct: also called 세릴-tRNA 합성효소
Kind of assay: Luminex multiplex bead assay, antigen coupled to beads, anti-HA-biotin / SA-PE detection.

For assay [2], the target named is T2, YRS (Tyrosyl-tRNA synthetase), purified recombinant antigen (UniProt P54577 1-528, limits assumed).
T2 construct: also called 타이로실-tRNA 합성효소
T2 sequence (looked up): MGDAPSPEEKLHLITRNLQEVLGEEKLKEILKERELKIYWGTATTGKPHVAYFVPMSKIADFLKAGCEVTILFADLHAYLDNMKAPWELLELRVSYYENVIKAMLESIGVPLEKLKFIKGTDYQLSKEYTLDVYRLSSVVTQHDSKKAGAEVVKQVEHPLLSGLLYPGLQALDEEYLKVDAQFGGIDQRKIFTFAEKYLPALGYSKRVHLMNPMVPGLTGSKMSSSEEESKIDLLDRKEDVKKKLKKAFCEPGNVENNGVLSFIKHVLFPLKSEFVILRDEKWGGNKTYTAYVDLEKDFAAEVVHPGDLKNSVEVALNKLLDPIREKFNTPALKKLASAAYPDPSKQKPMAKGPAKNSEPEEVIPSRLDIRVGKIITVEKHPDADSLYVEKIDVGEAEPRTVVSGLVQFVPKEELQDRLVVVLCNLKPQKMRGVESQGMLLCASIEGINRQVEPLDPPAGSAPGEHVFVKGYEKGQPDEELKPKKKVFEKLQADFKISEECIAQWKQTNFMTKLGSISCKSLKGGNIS
The assay is described as above.

The target of assay [3] is T3, AIMP1 (Aminoacyl-tRNA-synthetase-interacting multifunctional protein 1), purified recombinant antigen (UniProt Q12904 1-312, limits assumed).
T3 construct: also called AIMP1(p43); p43
T3 sequence (looked up): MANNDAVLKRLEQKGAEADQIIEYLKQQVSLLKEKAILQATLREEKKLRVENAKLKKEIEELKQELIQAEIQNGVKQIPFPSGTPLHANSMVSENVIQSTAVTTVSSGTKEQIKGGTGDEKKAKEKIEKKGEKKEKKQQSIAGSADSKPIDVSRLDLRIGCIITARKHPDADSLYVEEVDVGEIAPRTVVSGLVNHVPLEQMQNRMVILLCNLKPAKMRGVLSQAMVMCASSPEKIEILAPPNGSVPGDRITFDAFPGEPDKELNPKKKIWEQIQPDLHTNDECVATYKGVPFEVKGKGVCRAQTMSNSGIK
The assay is described as above.

Assay [4] addresses T4, WRS (Tryptophanyl-tRNA synthetase), purified recombinant antigen (UniProt P23381 1-471, limits assumed).
T4 construct: also called 트립토파닐-tRNA 합성효소
T4 sequence (looked up): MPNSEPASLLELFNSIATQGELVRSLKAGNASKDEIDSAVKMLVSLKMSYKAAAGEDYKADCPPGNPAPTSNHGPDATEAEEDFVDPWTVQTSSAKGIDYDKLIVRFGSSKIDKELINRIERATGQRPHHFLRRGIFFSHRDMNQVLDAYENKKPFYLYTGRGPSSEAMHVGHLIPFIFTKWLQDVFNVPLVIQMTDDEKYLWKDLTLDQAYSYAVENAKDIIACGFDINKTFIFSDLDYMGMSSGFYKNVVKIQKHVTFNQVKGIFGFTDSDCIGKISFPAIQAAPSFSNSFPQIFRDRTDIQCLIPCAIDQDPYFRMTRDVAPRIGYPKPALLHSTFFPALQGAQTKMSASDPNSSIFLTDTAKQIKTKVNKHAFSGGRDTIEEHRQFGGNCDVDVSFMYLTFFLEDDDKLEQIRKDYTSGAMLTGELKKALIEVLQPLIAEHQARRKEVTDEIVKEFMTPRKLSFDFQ
The description is as above.

Assay [5] has as its target T5, HRS (Histidyl-tRNA synthetase), purified recombinant antigen (UniProt P12081 1-509, limits assumed).
T5 construct: also called 히스티딜-tRNA 합성효소
T5 sequence (looked up): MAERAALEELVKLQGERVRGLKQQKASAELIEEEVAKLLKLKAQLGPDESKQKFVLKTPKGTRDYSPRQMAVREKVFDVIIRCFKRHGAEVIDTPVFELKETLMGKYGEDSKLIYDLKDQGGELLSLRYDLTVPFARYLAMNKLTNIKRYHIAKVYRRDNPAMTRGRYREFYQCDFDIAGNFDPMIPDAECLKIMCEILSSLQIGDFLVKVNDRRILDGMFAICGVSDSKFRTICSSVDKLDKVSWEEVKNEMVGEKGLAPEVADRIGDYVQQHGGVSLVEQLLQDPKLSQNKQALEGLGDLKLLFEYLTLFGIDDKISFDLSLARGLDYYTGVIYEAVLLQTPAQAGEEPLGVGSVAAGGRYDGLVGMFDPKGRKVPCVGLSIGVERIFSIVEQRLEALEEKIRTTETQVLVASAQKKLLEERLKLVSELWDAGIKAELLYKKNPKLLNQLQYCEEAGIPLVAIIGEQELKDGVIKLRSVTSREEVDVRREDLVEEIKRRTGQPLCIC
Described as above.

In assay [6] the target is T6, NRS (Asparaginyl-tRNA synthetase), purified recombinant antigen (UniProt O43776 1-548, limits assumed).
T6 construct: also called 아스파라기닐딜-tRNA 합성효소
T6 sequence (looked up): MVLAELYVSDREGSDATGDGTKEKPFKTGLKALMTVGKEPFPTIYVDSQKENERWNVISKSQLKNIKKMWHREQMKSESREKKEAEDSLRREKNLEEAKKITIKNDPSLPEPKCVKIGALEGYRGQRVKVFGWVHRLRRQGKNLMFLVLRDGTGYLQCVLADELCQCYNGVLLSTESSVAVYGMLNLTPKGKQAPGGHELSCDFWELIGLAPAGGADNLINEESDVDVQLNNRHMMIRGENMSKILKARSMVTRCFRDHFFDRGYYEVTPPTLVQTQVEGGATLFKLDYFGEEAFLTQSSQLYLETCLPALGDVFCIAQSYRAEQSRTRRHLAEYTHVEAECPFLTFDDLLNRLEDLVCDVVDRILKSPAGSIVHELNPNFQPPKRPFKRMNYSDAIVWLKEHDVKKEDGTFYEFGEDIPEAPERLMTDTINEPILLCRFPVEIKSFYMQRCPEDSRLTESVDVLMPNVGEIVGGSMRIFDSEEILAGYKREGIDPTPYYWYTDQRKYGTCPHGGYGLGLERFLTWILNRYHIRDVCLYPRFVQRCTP
The assay is described as above.

Assay [7] concerns the target T7, KRS (Lysyl-tRNA synthetase), purified recombinant antigen (UniProt Q15046 1-597, limits assumed).
T7 construct: also called 리실-tRNA 합성효소
The assay is described as above.

Assay [8] deals with T8, GRS expressed natively in human cells (HeLa cell lysate) (human, UniProt P41250 55-739, limits assumed).
T8 construct: Target of the western blot; also called human 세포에서 원래 발현된 GRS
T8 sequence (looked up): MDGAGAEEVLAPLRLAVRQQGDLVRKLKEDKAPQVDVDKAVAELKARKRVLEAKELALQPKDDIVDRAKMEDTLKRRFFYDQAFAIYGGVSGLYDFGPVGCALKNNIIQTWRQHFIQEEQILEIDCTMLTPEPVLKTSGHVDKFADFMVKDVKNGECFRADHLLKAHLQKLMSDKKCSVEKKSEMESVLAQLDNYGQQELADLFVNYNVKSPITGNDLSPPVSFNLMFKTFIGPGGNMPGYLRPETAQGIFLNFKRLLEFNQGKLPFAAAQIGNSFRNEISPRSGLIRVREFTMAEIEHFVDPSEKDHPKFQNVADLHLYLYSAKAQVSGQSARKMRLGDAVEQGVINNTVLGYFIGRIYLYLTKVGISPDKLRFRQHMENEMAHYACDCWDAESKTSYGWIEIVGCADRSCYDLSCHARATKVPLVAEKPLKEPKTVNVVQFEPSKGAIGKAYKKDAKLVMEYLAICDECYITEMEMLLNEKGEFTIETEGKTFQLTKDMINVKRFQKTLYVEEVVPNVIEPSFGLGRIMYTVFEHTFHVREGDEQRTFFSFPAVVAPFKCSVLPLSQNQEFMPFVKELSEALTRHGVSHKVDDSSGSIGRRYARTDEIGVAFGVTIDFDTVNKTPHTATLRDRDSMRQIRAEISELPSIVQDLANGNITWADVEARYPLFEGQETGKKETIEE
The assay is described as follows: western blot.

T1 sequence (P49591 whole entry): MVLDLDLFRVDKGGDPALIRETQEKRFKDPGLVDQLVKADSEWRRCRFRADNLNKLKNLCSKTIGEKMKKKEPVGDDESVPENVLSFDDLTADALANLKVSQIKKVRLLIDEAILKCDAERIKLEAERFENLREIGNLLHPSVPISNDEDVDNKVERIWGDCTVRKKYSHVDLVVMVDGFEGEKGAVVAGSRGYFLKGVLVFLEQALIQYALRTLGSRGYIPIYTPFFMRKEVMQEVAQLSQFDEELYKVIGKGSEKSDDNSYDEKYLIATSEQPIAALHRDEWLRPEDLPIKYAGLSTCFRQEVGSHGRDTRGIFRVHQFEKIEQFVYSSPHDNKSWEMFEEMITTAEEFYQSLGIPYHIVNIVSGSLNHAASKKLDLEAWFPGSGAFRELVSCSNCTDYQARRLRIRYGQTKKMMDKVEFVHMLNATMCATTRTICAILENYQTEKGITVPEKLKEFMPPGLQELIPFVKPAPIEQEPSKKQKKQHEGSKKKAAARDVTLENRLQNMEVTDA
T7 sequence (Q15046 whole entry): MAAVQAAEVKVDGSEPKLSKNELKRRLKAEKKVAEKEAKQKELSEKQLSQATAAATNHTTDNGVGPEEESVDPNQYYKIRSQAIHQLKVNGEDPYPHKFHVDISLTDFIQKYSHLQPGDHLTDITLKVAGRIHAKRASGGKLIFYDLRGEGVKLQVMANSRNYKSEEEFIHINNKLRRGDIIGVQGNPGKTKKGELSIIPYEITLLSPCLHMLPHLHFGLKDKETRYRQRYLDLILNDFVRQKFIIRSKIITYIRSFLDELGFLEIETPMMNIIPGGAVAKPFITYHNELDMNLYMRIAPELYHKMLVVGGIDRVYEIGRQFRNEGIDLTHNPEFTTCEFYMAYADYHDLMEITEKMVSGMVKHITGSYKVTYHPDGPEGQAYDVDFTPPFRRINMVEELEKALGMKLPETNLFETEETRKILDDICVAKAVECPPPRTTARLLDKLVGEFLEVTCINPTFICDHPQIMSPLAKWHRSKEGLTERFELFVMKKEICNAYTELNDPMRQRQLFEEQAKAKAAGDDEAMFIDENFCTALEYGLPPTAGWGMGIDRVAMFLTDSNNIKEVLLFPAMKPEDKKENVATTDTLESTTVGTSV

B1: anti-GRS scFv, SEQ ID NO 13 (antibody i) (scFv)
scFv: EVQLLESGGGLVQPGGSLRLSCAASGFTFSDYDMSWVRQAPGKGLEWVSAISPDDGSKYYADSVKGRFTISRDNSKNTLYLQMNSLRAEDTAVYYCARTTWLFDYWGQGTLVTVSSGGGGSGGGGSGGGGSQSVLTQPPSASGTPGQRVTISCTGSSSNIGNNYVNWYQQLPGTAPKLLIYADSHRPSGVPDRFSGSKSGTSASLAISGLRSEDEADYYCGAWDSSLSGYVFGGGTKLTVL
notes: One of the three scFvs selected by phage display (human VH3-23/VL1g framework), expressed from pComb3X in the E. coli periplasm; It was purified on Ni-NTA and detected with anti-HA, so it carries His and HA tags; Every result written here is told alike for all three scFvs; also called 본 발명의 항체; 항 GRS scFv 항체
On to B1, for which the binding result in assay [1], in assay [2], in assay [3], in assay [4], in assay [5] and in assay [6] was “no binding” each time. Further, the binding result in assay [7] is listed as “no binding”.

B2: anti-GRS scFv, SEQ ID NO 41 (antibody iii) (scFv)
scFv: EVQLLESGGGLVQPGGSLRLSCAASGFTFSNYDMSWVRQAPGKGLEWVSWIYSNGSSTYYADSVKGRFTISRDNSKNTLYLQMNSLRAEDTAVYYCARITCMFDYWGQGTLVTVSSGGGGSGGGGSGGGGSQSVLTQPPSASGTPGQRVTISCSGSSSNIGSNYVTWYQQLPGTAPKLLIYADSHRPSGVPDRFSGSKSGTSASLAISGLRSEDEADYYCGSWDYSLNGYVFGGGTKLTVL
notes: One of the three scFvs selected by phage display, expressed from pComb3X in the E. coli periplasm; His and HA tags were used for purification and detection; also called 본 발명의 항체; 항 GRS scFv 항체
Turning to B2, the binding result in assay [8] is recorded as “binds”; in assay [1] it was “no binding”; in assay [2] it was “no binding”; in assay [3], “no binding”; in assay [4], “no binding”; in assay [5], “no binding”. The binding result in assay [6] and in assay [7] was “no binding” each time.

B3: anti-GRS scFv, SEQ ID NO 27 (antibody ii) (scFv)
scFv: EVQLLESGGGLVQPGGSLRLSCAASGFTFSGYDMSWVRQAPGKGLEWVSAIYSDSGSTYYADSVKGRFTISRDNSKNTLYLQMNSLRAEDTAVYYCARNTALFDYWGQGTLVTVSSGGGGSGGGGSGGGGSQSVLTQPPSASGTPGQRVTISCSGSSSNIGSNYVTWYQQLPGTAPKLLIYANNHRPSGVPDRFSGSKSGTSASLAISGLRSEDEADYYCGAWDASLSGYVFGGGTKLTVL
notes: as for B2
In the case of B3, the binding result is given as “binds” in assay [8]; “no binding” in assay [1]; “no binding” in assay [2]; “no binding” in assay [3]; “no binding” in assay [4]; “no binding” in assay [5]. Besides, the binding result in assay [6] and in assay [7] was “no binding” throughout.

The values above are taken from patent publication KR20150077749A (dated 2015).
